Results published in the supplement of paper PMC5998384.

Columns and labels:
HeLa Kyoto [1] = assay: solubility change mitosis vs G1/S (difference of NP-40 vs SDS log2 ratios) (log2 ratio difference); higher = more soluble in mitosis
HeLa Kyoto [2] = assay: thermal stability score vs G1/S (z-score of summed log2 fold changes over temperatures); higher = more thermally stable than in G1/S
HeLa Kyoto [3] = assay: melting temperature (median over replicates), in situ; higher = more thermally stable
HeLa Kyoto [4] = assay: solubility in G1/S (NP-40 vs SDS abundance) (log2 ratio); higher = more soluble; settings: cell cycle stage: G1/S
[5] = cell cycle stage: early G1 (4.5 h after nocodazole release)
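Wherever melting temperature (median over replicates), in situ is given: HeLa Kyoto cells synchronized by double thymidine or nocodazole block, proteins quantified by TMT10plex mass spectrometry, three independent biological replicates.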
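Wherever solubility change mitosis vs G1/S (difference of NP-40 vs SDS log2 ratios) is given: synchronized HeLa Kyoto cells (double thymidine block for G1/S, nocodazole release for mitosis), protein amounts in NP-40 versus SDS lysates quantified by mass spectrometry, three biological replicates.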
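Wherever solubility in G1/S (NP-40 vs SDS abundance) is given: HeLa Kyoto cells arrested at G1/S by double thymidine block, proteins quantified by TMT10plex mass spectrometry in mild NP-40 versus SDS extracts, three biological replicates.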
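Wherever thermal stability score vs G1/S (z-score of summed log2 fold changes over temperatures) is given: synchronized HeLa Kyoto cells, proteins quantified by TMT10plex mass spectrometry, three biological replicates, mitosis taken 0.5 h after nocodazole release, G1/S directly after double thymidine block.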

Sequence	solubility change mitosis (log2) (HeLa Kyoto [1])	thermal stability score (HeLa Kyoto [2]; [5])	thermal stability score (HeLa Kyoto [2]; cell cycle stage: mitosis)	melting temperature (HeLa Kyoto [3]; cell cycle stage: G1/S)	melting temperature (HeLa Kyoto [3]; cell cycle stage: mitosis)	solubility in G1/S (log2) (HeLa Kyoto [4])
MDAPRASAAKPPTGRKMKARAPPPPGKAATLHVHSDQKPPHDGALGSQQNLVRMKEALRASTMDVTVVLPSGLEKRSVLNGSHAMMDLLVELCLQNHLNPSHHALEIRSSETQQPLSFKPNTLIGTLNVHTVFLKEKVPEEKVKPGPPKVPEKSVRLVVNYLRTQKAVVRVSPEVPLQNILPVICAKCEVSPEHVVLLRDNIAGEELELSKSLNELGIKELYAWDNRRETFRKSSLGNDETDKEKKKFLGFFKVNKRSNSKGCLTTPNSPSMHSRSLTLGPSLSLGSISGVSVKSEMKKRRAPPPPGSGPPVQDKASEKVSLGSQIDLQKKKRRAPAPPPPQPPPPSPLIPNRTEDKEENRKSTMVSLPLGSGSHCSPDGAPQVLSEAEETVSVGSCFASEDTTEDSGVMSSPSDIVSLDSQQDSMKYKDKWATDQEDCSDQDLAGTPDLGPQKSPLWEKNGSENSHLRTEKAVTASNDEEDLLIAGEFRKTLAELDEDLEEMEDSYETDTSSLTSSIHGASNHCPQDAMIPHGDTDAIPVTFIGEVSDDPVDSGLFSNRNNNAGSFDSEGVASRRDSLAPLQAEHSQPHEKAREEVPALHPASHDVGKGIRVALSNISKDGNLMETAPRVTSFASNLHTDNLNAKVKDKVYGCADGERTQATERVNSQPVNEKDSNDKNAALAPTSWHQRGQNPGKSYRLKHGLTTYKIIPPKSEMRCYDRDVSLSTGAIKIDELGNLVSPHATGIRIISLSSSVPEAESQPIGKVREFWRCNSVEKHLGRPSESSARGPPSTPVPTQTQNPESRLQADPKPISPQQKSAHHEGRNPLGEGRNQPPTMGMGHVRVPAAHTTEVTFLKPQRRTSSQYVASAIAKRIGAPKVHADVVRPHGYAEKGYAGKAPVLAAPPVTVKDDRTSSPHSETQGWKDGAQWPCVTPPNNHGEDLAVGAPPRGEVIGPHRKLSTQDRPAAIHRSSCFSLVQSSQRDRVSVGQSCGFSGKQSTSSQEASSASEPRRAPDGTDPPPPHTSDTQACSRELVNGSVRAPGHGEPSHPPGGSGTESHILLEREEKPSVFSTDGNETDSIWPPSIFGPKKKFKPVVQRPVPKDTSLHSALMEAIHSAGGKDRLRKTAEHTGEGRPAKLSYTEAEGERSALLAAIRGHSGTCSLRKVASSASEELQSFRDAALSAQGSESPLLEDLGLLSPPAIPPPPPPPSQALSAPRTASRFSTGTLSNTADARQALMDAIRSGTGAARLRKVPLLV [COBL]	0.177	1.3	1.18	49.1 °C	49.8 °C	-0.423
MGVPAFFRWLSRKYPSIIVNCVEEKPKECNGVKIPVDASKPNPNDVEFDNLYLDMNGIIHPCTHPEDKPAPKNEDEMMVAIFEYIDRLFSIVRPRRLLYMAIDGVAPRAKMNQQRSRRFRASKEGMEAAVEKQRVREEILAKGGFLPPEEIKERFDSNCITPGTEFMDNLAKCLRYYIADRLNNDPGWKNLTVILSDASAPGEGEHKIMDYIRRQRAQPNHDPNTHHCLCGADADLIMLGLATHEPNFTIIREEFKPNKPKPCGLCNQFGHEVKDCEGLPREKKGKHDELADSLPCAEGEFIFLRLNVLREYLERELTMASLPFTFDVERSIDDWVFMCFFVGNDFLPHLPSLEIRENAIDRLVNIYKNVVHKTGGYLTESGYVNLQRVQMIMLAVGEVEDSIFKKRKDDEDSFRRRQKEKRKRMKRDQPAFTPSGILTPHALGSRNSPGSQVASNPRQAAYEMRMQNNSSPSISPNTSFTSDGSPSPLGGIKRKAEDSDSEPEPEDNVRLWEAGWKQRYYKNKFDVDAADEKFRRKVVQSYVEGLCWVLRYYYQGCASWKWYYPFHYAPFASDFEGIADMPSDFEKGTKPFKPLEQLMGVFPAASGNFLPPSWRKLMSDPDSSIIDFYPEDFAIDLNGKKYAWQGVALLPFVDERRLRAALEEVYPDLTPEETRRNSLGGDVLFVGKHHPLHDFILELYQTGSTEPVEVPPELCHGIQGKFSLDEEAILPDQIVCSPVPMLRDLTQNTVVSINFKDPQFAEDYIFKAVMLPGARKPAAVLKPSDWEKSSNGRQWKPQLGFNRDRRPVHLDQAAFRTLGHVMPRGSGTGIYSNAAPPPVTYQGNLYRPLLRGQAQIPKLMSNMRPQDSWRGPPPLFQQQRFDRGVGAEPLLPWNRMLQTQNAAFQPNQYQMLAGPGGYPPRRDDRGGRQGYPREGRKYPLPPPSGRYNWN [XRN2]	0.128	1.15	0.632	50.2 °C	50.4 °C	-0.126
